Measured values from patent US20210214460A1 (AstraZeneca / MedImmune, published 2021).

Legend:
[1] = molecular target: T1, monomeric human sBCMA (GenScript) (human, UniProt Q02223 1-54); experiment: SPR (ProteOn XPR36), antibody captured by anti-Fc, sBCMA 100-6.25 nM as analyte
T1 construct: extracellular domain; also called monomeric BCMA; monomeric (soluble) BCMA
T1 sequence (looked up): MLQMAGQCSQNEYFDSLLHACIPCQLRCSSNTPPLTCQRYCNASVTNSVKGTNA
Experimental: The binding of 15B2GL monoclonal antibody and optimized clones I09, L15, P10, N22, and M02 (described in Example 1) was assessed using monomeric human sBCMA (GenScript, Piscataway, N.J.) using a ProteOn™ XPR36 instrument (Bio-Rad, Hercules, Calif.). The binding of J6M0 also was assessed for comparison. Standard amine coupling was used to immobilize 25 μg/ml anti-Fc polyclonal antibody (Jackson ImmunoResearch, West Grove, Pa.) prepared in 10 mM sodium acetate buffer (pH 4.5) to the surface of a ProteOn™ GLC biosensor chip (Bio-Rad, Hercules, Calif.) pre-activated with 20 mM EDAC (1-ethyl-3-(3-dimethylaminopropyl)carbodiimide hydrochloride) and 5 mM Sulfo-NHS (N-hydroxysulfosuccinimide) at a density of ˜200-600 resonance units (RU). 15B2GL, I09, L15, P10, N22, M02, and J6M0 were subsequently injected at a concentration of 1 μg/ml for capture by the immobilized anti-Fc polyclonal antibody. The sensorgram was recorded by flowing two-fold serial dilutions of sBCMA prepared in PBS (pH 7.4) with 0.005% (v/v) Tween®-20, ranging from 100-6.25 nM, over the captured surface for 150 seconds at 75 μL/minute with dissociation time of 600 seconds. ProteOn™ data analysis software was used to analyze the data.

[2] = molecular target: T2, cynomolgus monkey BCMA stably expressed on Ad293 cells (cynomolgus monkey, UniProt A0A2K5UD97 1-183); experiment: FACS on Ad293 cells stably expressing cynomolgus BCMA, Alexa Fluor 647 secondary antibody, raw MFI (geo mean)
T2 construct: whole, on cells; also called cynoBCMA; Cyno BCMA
T2 sequence (A0A2K5UD97 entry or part of it): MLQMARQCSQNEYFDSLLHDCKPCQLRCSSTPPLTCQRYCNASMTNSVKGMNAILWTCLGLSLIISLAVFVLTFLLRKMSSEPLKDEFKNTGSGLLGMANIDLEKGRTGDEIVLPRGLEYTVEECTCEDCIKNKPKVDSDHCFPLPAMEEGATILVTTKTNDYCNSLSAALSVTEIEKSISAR
Experimental: (§1) Antibodies 4679, 756, and 15B2GL (as described below) were analyzed by FACS to evaluate binding of antibodies to human BCMA, cynomolgus monkey BCMA, TACI, and BAFF-R using recombinant forms of the receptors stably expressed on Ad293 cells. Binding assays were performed by incubating antibodies 4679, 756, and 15B2GL with 200,000 cells at 4° C. for 45 minutes followed by two washes with PBS+2% FBS. Cells were then incubated with Alexa-Fluor® 647-labeled secondary antibodies at 4° C., followed by two washes in PBS+2% FBS. Anti-BAFF-R, anti-TACI, and anti-human BCMA-APC labeled antibodies were added according to manufacturer's recommended dilution in control wells. Cells were resuspended in 200 uL PBS+2% FBS+DAPI and antibody binding to live cells was analyzed using a Becton Dickinson™ Biosciences LSRII cytometer.

[3] = molecular target: T3, membrane-bound human BCMA (human, UniProt Q02223 1-184); experiment: flow cytometry on Ad293 cells expressing human BCMA, printed as apparent affinity
T3 construct: whole, on cells; also called huBCMA
T3 sequence (looked up): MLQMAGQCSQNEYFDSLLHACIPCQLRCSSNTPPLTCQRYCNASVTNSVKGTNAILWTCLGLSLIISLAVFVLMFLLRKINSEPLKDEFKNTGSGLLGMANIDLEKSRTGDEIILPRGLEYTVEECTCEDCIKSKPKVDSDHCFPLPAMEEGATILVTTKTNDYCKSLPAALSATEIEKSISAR
Experimental: (§2) Binding of 15B2GL, I09, L15, and J6M0 to membrane-bound human BCMA was evaluated using flow cytometry in multiple myeloma and plasma cell leukemia cell lines that endogenously express BCMA (NCI-H929 and MM.1S, respectively). Binding of 15B2GL, 109, L15 to membrane-bound human BCMA was also evaluated in Ad293 cells expressing human BCMA. Binding assays were performed by incubating the anti-BCMA antibodies with 200,000 cells for 30 minutes at 4° C. followed by two washes with PBS+2% FBS (FACS Buffer). A range of antibody concentrations were evaluated using a 12-point, 3-fold dilution series. Cells were then incubated with 5 ug/mL goat-anti human IgG-AF647 secondary antibodies (Thermo Fisher Scientific, Waltham, Mass.) at 4° C., followed by two washes in PBS+2% FBS. Cells were resuspended in 200 uL PBS+2% FBS+DAPI.
(§3) Fluorescence of live, single cells was measured using a BD Biosciences LSRII cytometer and BD FACSDiva™ software (BD Biosciences, San Jose, Calif.). Data were analyzed using FlowJo™ software (FlowJo, LLC, Ashland, Oreg.). Mean fluorescence intensity values were used to determine percentage bound and EC50 was determined using Prism™ software (GraphPad Software Inc, La Jolla, Calif.).

[4] = molecular target: T3, membrane-bound human BCMA; experiment: FACS on Ad293 cells stably expressing human BCMA, Alexa Fluor 647 secondary antibody, raw MFI (geo mean)
Experimental: as §1

[5] = molecular target: T4, TACI stably expressed on Ad293 cells (Homo sapiens (Human), UniProt O14836 1-293); experiment: FACS on Ad293 cells stably expressing TACI, Alexa Fluor 647 secondary antibody, raw MFI (geo mean)
T4 sequence: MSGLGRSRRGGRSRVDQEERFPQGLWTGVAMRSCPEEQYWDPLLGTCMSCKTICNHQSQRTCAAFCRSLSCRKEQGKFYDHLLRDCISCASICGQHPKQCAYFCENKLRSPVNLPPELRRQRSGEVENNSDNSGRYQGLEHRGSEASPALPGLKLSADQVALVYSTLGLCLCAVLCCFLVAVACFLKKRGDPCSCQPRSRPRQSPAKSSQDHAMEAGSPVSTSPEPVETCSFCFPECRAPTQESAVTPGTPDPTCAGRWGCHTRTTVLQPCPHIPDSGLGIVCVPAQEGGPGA
Experimental: as §1

[6] = molecular target: T5, BAFF-R stably expressed on Ad293 cells (Homo sapiens (Human), UniProt Q96RJ3 1-184); experiment: FACS on Ad293 cells stably expressing BAFF-R, Alexa Fluor 647 secondary antibody, raw MFI (geo mean)
T5 sequence: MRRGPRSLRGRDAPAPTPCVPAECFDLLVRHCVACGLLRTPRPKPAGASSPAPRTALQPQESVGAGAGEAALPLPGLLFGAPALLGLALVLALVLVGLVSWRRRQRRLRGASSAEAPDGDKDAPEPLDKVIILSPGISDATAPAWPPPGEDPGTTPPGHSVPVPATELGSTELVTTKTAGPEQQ
Experimental: as §1

[7] = molecular target: T3, membrane-bound human BCMA; experiment: flow cytometry on NCI-H929 cells (endogenous BCMA), printed as apparent affinity
Experimental: as §2, §3

[8] = molecular target: T3, membrane-bound human BCMA; experiment: flow cytometry on MM.1S cells (endogenous BCMA), printed as apparent affinity
Experimental: as §2, §3

B1: 15B2GL monoclonal antibody (antibody, V domains shown)
VH: EVQLVESGGGLVKPGGSLRLSCAASGFTFRSYSMNWVRQAPGKGLEWVSSISGSSNYIYYADSVKGRFTISRDNAKNSLYLQMNSLRAEDTAVYYCARGGNYYVEYFQYWGQGTLVTVSS
VL: EIVLTQSPGTLSLSPGERATLSCRASQYISSNYLAWYQQKPGQAPRLLIYGASNRATGIPDRFSGSGSGTDFTLTISRLEPEDFAVYYCQQYGSSPITFGQGTKLEIK
notes: Clone 15B2 was converted into human IgG1 and germlined at four residues (15B2GL); also called germlined 15B2
- Kd [1]: 60.7 nM
- EC50 (read off the curve) [2]: ~1 µg/mL
- EC50 [3]: 3.87 nM
- EC50 (read off the curve) [4]: ~0.6 µg/mL
- binding result [5]: no binding (tested: 100 ug/mL)
- binding result [6]: no binding (tested: 100 ug/mL)
- EC50 [7]: 3.14 nM
- EC50 [8]: 2.56 nM
